Test results published in PMC10786891, “Massively parallel profiling of RNA-targeting CRISPR-Cas13d”.

T1: EsCas13d, nuclease-dead (Eubacterium siraeum, UniProt B0MS50, R295A;H300A;R849A;H854A)
T1 sequence: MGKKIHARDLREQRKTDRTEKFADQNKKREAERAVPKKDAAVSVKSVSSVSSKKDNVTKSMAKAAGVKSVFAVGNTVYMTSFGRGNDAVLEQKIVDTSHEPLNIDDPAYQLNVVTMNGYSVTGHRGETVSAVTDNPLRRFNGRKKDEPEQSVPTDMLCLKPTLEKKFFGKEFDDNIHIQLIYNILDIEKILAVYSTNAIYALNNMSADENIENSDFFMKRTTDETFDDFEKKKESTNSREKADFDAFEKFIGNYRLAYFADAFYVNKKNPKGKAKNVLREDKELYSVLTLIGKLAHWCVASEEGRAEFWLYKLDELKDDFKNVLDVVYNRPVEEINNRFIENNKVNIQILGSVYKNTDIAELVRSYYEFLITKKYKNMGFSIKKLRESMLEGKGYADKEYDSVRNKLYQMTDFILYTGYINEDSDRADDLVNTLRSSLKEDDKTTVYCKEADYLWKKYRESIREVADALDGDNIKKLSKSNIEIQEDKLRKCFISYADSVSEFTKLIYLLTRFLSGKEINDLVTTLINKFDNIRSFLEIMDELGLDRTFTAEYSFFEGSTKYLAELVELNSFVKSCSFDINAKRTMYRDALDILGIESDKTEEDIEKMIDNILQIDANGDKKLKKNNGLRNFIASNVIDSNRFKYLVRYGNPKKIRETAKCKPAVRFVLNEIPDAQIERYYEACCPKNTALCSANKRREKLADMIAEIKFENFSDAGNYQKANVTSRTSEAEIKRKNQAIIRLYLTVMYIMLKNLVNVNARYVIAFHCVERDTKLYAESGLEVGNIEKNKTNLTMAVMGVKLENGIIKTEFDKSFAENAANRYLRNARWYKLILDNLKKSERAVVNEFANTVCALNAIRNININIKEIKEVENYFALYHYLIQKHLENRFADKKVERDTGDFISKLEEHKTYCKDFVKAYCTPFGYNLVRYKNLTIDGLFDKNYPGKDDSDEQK


target: T1, EsCas13d, nuclease-dead; assay: crRNA (strand 1, pre-loaded); Mg2+; 40 mM Tris-HCl pH 7.5, 150 mM NaCl, 6 mM MgCl2, 1 mM DTT, 0.1% Tween-20, 0.2 mg/ml BSA; 25 C; 10 min per concentration, then washed; details: tags: His6-TwinStrep-SUMO cleaved; N-terminal SNAP kept (SNAP-Surface 488); label: 3' end held by stalled T7 RNA polymerase

Row | Binder | Kd [nM]
1 | target 1 insA 3' of 21,insU 3' of 18 (mixed) RNA 1: CACCCGUGCAAAAAUGCAGGGGUCUAAAACUGAGCGGAUAACCUCUCUAUGG RNA 2: GGGAAUGGAUCCACAUCUACGAAUUCGUACCAAUAUGAGAGGUUAUCCGCUCACCGAGAUCGGAAGAGCACACGU | 46 ± 7
2 | target 1 insC 3' of 18,insU 3' of 4 (mixed) RNA 1: CACCCGUGCAAAAAUGCAGGGGUCUAAAACUGAGCGGAUAACCUCUCUAUGG RNA 2: GGGAAUGGAUCCACAUCUACGAAUUCGUACCAUACGAGAGGUUAUCCGCUUCACCGAGAUCGGAAGAGCACACGU | 25.8 ± 1.8
3 | target 1 G17A,C21A (mixed) RNA 1: CACCCGUGCAAAAAUGCAGGGGUCUAAAACUGAGCGGAUAACCUCUCUAUGG RNA 2: GGGAAUGGAUCCACAUCUACGAAUUCGUACAAUAAAGAGGUUAUCCGCUCACCGAGAUCGGAAGAGCACACGU | 56 ± 7
4 | target 1 insG 3' of 7,insA 3' of 2 (mixed) RNA 1: CACCCGUGCAAAAAUGCAGGGGUCUAAAACUGAGCGGAUAACCUCUCUAUGG RNA 2: GGGAAUGGAUCCACAUCUACGAAUUCGUACCAUAGAGAGGUUAUCGCGCUCAACCGAGAUCGGAAGAGCACACGU | 6.36 ± 0.31
5 | target 1 G15A,A16G (mixed) RNA 1: CACCCGUGCAAAAAUGCAGGGGUCUAAAACUGAGCGGAUAACCUCUCUAUGG RNA 2: GGGAAUGGAUCCACAUCUACGAAUUCGUACCAUAGGAAGGUUAUCCGCUCACCGAGAUCGGAAGAGCACACGU | 51 ± 5
6 | target 1 insU 3' of 22,insU 3' of 12 (mixed) RNA 1: CACCCGUGCAAAAAUGCAGGGGUCUAAAACUGAGCGGAUAACCUCUCUAUGG RNA 2: GGGAAUGGAUCCACAUCUACGAAUUCGUACUCAUAGAGAGGUUUAUCCGCUCACCGAGAUCGGAAGAGCACACGU | 26.9 ± 1.6
7 | target 1 insU 3' of 15,insA 3' of 7 (mixed) RNA 1: CACCCGUGCAAAAAUGCAGGGGUCUAAAACUGAGCGGAUAACCUCUCUAUGG RNA 2: GGGAAUGGAUCCACAUCUACGAAUUCGUACCAUAGAGUAGGUUAUCACGCUCACCGAGAUCGGAAGAGCACACGU | 8.2 ± 0.6
8 | target 1 U10A,A16C (mixed) RNA 1: CACCCGUGCAAAAAUGCAGGGGUCUAAAACUGAGCGGAUAACCUCUCUAUGG RNA 2: GGGAAUGGAUCCACAUCUACGAAUUCGUACCAUAGCGAGGUAAUCCGCUCACCGAGAUCGGAAGAGCACACGU | 68 ± 10
9 | target 1 A16G,C22A (mixed) RNA 1: CACCCGUGCAAAAAUGCAGGGGUCUAAAACUGAGCGGAUAACCUCUCUAUGG RNA 2: GGGAAUGGAUCCACAUCUACGAAUUCGUAACAUAGGGAGGUUAUCCGCUCACCGAGAUCGGAAGAGCACACGU | 51 ± 10
10 | target 1 insG 3' of 9,insU 3' of 4 (mixed) RNA 1: CACCCGUGCAAAAAUGCAGGGGUCUAAAACUGAGCGGAUAACCUCUCUAUGG RNA 2: GGGAAUGGAUCCACAUCUACGAAUUCGUACCAUAGAGAGGUUAGUCCGCUUCACCGAGAUCGGAAGAGCACACGU | 12.2 ± 0.4
11 | target 1 C4A,C7G (mixed) RNA 1: CACCCGUGCAAAAAUGCAGGGGUCUAAAACUGAGCGGAUAACCUCUCUAUGG RNA 2: GGGAAUGGAUCCACAUCUACGAAUUCGUACCAUAGAGAGGUUAUGCGAUCACCGAGAUCGGAAGAGCACACGU | 9.6 ± 0.4
12 | target 1 insG 3' of 7,insC 3' of 1 (mixed) RNA 1: CACCCGUGCAAAAAUGCAGGGGUCUAAAACUGAGCGGAUAACCUCUCUAUGG RNA 2: GGGAAUGGAUCCACAUCUACGAAUUCGUACCAUAGAGAGGUUAUCGCGCUCACCCGAGAUCGGAAGAGCACACGU | 7.6 ± 0.5
13 | target 1 del8,del11 (mixed) RNA 1: CACCCGUGCAAAAAUGCAGGGGUCUAAAACUGAGCGGAUAACCUCUCUAUGG RNA 2: GGGAAUGGAUCCACAUCUACGAAUUCGUACCAUAGAGAGGUACCGCUCACCGAGAUCGGAAGAGCACACGU | 25.7 ± 1.7
14 | target 1 U3G,A9U (mixed) RNA 1: CACCCGUGCAAAAAUGCAGGGGUCUAAAACUGAGCGGAUAACCUCUCUAUGG RNA 2: GGGAAUGGAUCCACAUCUACGAAUUCGUACCAUAGAGAGGUUUUCCGCGCACCGAGAUCGGAAGAGCACACGU | 7.5 ± 0.7
15 | target 1 insC 3' of 12 (mixed) RNA 1: CACCCGUGCAAAAAUGCAGGGGUCUAAAACUGAGCGGAUAACCUCUCUAUGG RNA 2: GGGAAUGGAUCCACAUCUACGAAUUCGUACCAUAGAGAGGCUUAUCCGCUCACCGAGAUCGGAAGAGCACACGU | 8.3 ± 0.5
16 | target 1 insU 3' of 20,insG 3' of 11 (mixed) RNA 1: CACCCGUGCAAAAAUGCAGGGGUCUAAAACUGAGCGGAUAACCUCUCUAUGG RNA 2: GGGAAUGGAUCCACAUCUACGAAUUCGUACCAUUAGAGAGGUGUAUCCGCUCACCGAGAUCGGAAGAGCACACGU | 51 ± 12
17 | target 1 C4U,C7A (mixed) RNA 1: CACCCGUGCAAAAAUGCAGGGGUCUAAAACUGAGCGGAUAACCUCUCUAUGG RNA 2: GGGAAUGGAUCCACAUCUACGAAUUCGUACCAUAGAGAGGUUAUACGUUCACCGAGAUCGGAAGAGCACACGU | 11.2 ± 0.8
18 | target 1 U10G,A14G (mixed) RNA 1: CACCCGUGCAAAAAUGCAGGGGUCUAAAACUGAGCGGAUAACCUCUCUAUGG RNA 2: GGGAAUGGAUCCACAUCUACGAAUUCGUACCAUAGAGGGGUGAUCCGCUCACCGAGAUCGGAAGAGCACACGU | 23.3 ± 1.3
19 | target 1 del3,del7 (mixed) RNA 1: CACCCGUGCAAAAAUGCAGGGGUCUAAAACUGAGCGGAUAACCUCUCUAUGG RNA 2: GGGAAUGGAUCCACAUCUACGAAUUCGUACCAUAGAGAGGUUAUCGCCACCGAGAUCGGAAGAGCACACGU | 4.94 ± 0.21
20 | target 1 U3A,G5U (mixed) RNA 1: CACCCGUGCAAAAAUGCAGGGGUCUAAAACUGAGCGGAUAACCUCUCUAUGG RNA 2: GGGAAUGGAUCCACAUCUACGAAUUCGUACCAUAGAGAGGUUAUCCUCACACCGAGAUCGGAAGAGCACACGU | 14.4 ± 1
21 | target 1 del11 (mixed) RNA 1: CACCCGUGCAAAAAUGCAGGGGUCUAAAACUGAGCGGAUAACCUCUCUAUGG RNA 2: GGGAAUGGAUCCACAUCUACGAAUUCGUACCAUAGAGAGGUAUCCGCUCACCGAGAUCGGAAGAGCACACGU | 15.9 ± 0.9
22 | target 1 insG 3' of 7,insG 3' of 1 (mixed) RNA 1: CACCCGUGCAAAAAUGCAGGGGUCUAAAACUGAGCGGAUAACCUCUCUAUGG RNA 2: GGGAAUGGAUCCACAUCUACGAAUUCGUACCAUAGAGAGGUUAUCGCGCUCAGCCGAGAUCGGAAGAGCACACGU | 6.65 ± 0.35
23 | target 1 insC 3' of 17,insA 3' of 10 (mixed) RNA 1: CACCCGUGCAAAAAUGCAGGGGUCUAAAACUGAGCGGAUAACCUCUCUAUGG RNA 2: GGGAAUGGAUCCACAUCUACGAAUUCGUACCAUAGCAGAGGUUAAUCCGCUCACCGAGAUCGGAAGAGCACACGU | 43.2 ± 3.4
24 | target 1 insU 3' of 21,insG 3' of 9 (mixed) RNA 1: CACCCGUGCAAAAAUGCAGGGGUCUAAAACUGAGCGGAUAACCUCUCUAUGG RNA 2: GGGAAUGGAUCCACAUCUACGAAUUCGUACCUAUAGAGAGGUUAGUCCGCUCACCGAGAUCGGAAGAGCACACGU | 77 ± 19
25 | target 1 insC 3' of 20,insC 3' of 11 (mixed) RNA 1: CACCCGUGCAAAAAUGCAGGGGUCUAAAACUGAGCGGAUAACCUCUCUAUGG RNA 2: GGGAAUGGAUCCACAUCUACGAAUUCGUACCACUAGAGAGGUCUAUCCGCUCACCGAGAUCGGAAGAGCACACGU | 11.2 ± 1.1
26 | target 1 insC 3' of 12,insG 3' of 8 (mixed) RNA 1: CACCCGUGCAAAAAUGCAGGGGUCUAAAACUGAGCGGAUAACCUCUCUAUGG RNA 2: GGGAAUGGAUCCACAUCUACGAAUUCGUACCAUAGAGAGGCUUAUGCCGCUCACCGAGAUCGGAAGAGCACACGU | 15 ± 0.6
27 | target 1 C4G,U11C (mixed) RNA 1: CACCCGUGCAAAAAUGCAGGGGUCUAAAACUGAGCGGAUAACCUCUCUAUGG RNA 2: GGGAAUGGAUCCACAUCUACGAAUUCGUACCAUAGAGAGGCUAUCCGGUCACCGAGAUCGGAAGAGCACACGU | 9 ± 0.8
28 | target 1 insA 3' of 11,insG 3' of 8 (mixed) RNA 1: CACCCGUGCAAAAAUGCAGGGGUCUAAAACUGAGCGGAUAACCUCUCUAUGG RNA 2: GGGAAUGGAUCCACAUCUACGAAUUCGUACCAUAGAGAGGUAUAUGCCGCUCACCGAGAUCGGAAGAGCACACGU | 35.6 ± 2.3
